Reduction in mIPSC frequency, 250 nM, summed peptide count and summed spectra count data for 2 substances are collected here from patent US20190225662A1.

The target of assay [1] is GABABR1a on mouse hippocampal neurons (cultures and slices) (mouse) (UniProt Q9WV18). Description: cell-based or functional assay.
The target of assay [2] is GABAB Receptor from rat whole-brain synaptosome extracts (rat). Description: affinity pull-down with sAPPα-Fc bait on rat synaptosome extracts, LCLC-MS/MS, three repeats.
Sequence of GABAB Receptor from rat whole-brain synaptosome extracts (rat) (Q9Z0U4 20-960, chain 1 of 2): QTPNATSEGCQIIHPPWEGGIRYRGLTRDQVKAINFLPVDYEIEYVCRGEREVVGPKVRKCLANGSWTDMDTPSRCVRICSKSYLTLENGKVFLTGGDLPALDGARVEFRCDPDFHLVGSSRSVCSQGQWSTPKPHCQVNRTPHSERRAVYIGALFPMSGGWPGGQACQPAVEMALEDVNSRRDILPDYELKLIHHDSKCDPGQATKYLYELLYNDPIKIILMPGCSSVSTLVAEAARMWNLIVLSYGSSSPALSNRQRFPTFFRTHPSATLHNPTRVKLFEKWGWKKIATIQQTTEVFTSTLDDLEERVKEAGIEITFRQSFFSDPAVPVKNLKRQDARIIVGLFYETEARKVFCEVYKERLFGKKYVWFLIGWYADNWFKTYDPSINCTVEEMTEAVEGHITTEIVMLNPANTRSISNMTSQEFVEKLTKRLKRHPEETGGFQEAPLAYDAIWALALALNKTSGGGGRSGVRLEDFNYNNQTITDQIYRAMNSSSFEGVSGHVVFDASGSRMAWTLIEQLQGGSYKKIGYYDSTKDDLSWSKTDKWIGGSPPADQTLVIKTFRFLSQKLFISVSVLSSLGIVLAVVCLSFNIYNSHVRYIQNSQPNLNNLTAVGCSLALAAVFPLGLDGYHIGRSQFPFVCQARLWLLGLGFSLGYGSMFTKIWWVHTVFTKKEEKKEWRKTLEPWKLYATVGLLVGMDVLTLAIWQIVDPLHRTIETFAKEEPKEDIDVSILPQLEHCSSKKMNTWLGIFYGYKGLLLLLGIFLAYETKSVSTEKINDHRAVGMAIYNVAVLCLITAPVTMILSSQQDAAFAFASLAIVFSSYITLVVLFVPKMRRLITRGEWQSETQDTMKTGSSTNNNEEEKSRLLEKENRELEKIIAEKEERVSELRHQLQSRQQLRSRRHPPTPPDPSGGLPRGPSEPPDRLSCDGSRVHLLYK
Sequence of GABAB Receptor from rat whole-brain synaptosome extracts (rat) (O88871 41-940, chain 2 of 2, further chain): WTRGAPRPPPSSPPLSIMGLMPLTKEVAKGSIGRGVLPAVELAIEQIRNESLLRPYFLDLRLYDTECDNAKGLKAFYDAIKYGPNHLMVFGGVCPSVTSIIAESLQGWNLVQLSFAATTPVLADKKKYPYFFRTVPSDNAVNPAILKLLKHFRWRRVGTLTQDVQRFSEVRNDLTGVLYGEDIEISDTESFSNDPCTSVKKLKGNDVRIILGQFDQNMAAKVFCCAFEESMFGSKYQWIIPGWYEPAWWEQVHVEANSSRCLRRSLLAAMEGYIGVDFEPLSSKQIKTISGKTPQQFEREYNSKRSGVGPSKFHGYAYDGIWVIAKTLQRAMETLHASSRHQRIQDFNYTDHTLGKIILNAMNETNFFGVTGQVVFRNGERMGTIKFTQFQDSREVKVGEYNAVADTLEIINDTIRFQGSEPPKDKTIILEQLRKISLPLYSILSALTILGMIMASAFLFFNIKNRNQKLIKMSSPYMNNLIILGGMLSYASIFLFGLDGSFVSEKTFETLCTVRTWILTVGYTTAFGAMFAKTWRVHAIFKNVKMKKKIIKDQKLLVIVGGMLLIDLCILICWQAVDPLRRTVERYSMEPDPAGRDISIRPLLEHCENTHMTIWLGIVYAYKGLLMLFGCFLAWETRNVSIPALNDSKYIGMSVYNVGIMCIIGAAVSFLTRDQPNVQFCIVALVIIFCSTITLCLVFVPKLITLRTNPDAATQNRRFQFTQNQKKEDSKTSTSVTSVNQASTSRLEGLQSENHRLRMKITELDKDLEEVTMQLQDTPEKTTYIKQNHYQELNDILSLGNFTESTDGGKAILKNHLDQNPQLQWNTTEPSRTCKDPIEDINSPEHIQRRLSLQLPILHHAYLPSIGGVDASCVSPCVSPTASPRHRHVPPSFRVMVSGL

Sequence of GABABR1a on mouse hippocampal neurons (cultures and slices) (mouse) (Q9WV18 20-960): as the sequence (Q9Z0U4 20-960, chain 1 of 2) above, with A5V, E108D, V124I, V702I, T850A, L902I counted along it

Substance “sAPLP1 (without Fc) (from UniProt Q03157 38-583) (ligand)” displayed a reduction in mIPSC frequency, 250 nM in assay [1] of 17%.

In assay [2], “sAPPα-Fc (soluble amyloid precursor protein α fused to human Fc) (from UniProt P12023 18-612) (Fc fusion)” showed a summed peptide count of 35 and a summed spectra count of 22.
